Sequences and labels used below:
B1: SULT1A1*1 (Homo sapiens) (protein)
chain: MELIQDTSRPPLEYVKGVPLIKYFAEALGPLQSFQARPDDLLISTYPKSGTTWVSQILDMIYQGGDLEKCHRAPIFMRVPFLEFKAPGIPSGMETLKDTPAPRLLKTHLPLALLPQTLLDQKVKVVYVARNAKDVAVSYYHFYHMAKVHPEPGTWDSFLEKFMVGEVSYGSWYQHVQEWWELSRTHPVLYLFYEDMKENPKREIQKILEFVGRSLPEETVDFVVQHTSFKEMKKNPMTNYTTVPQEFMDHSISPFMRKGMAGDWKTTFTVAQNERFDADYAEKMAGCSLSFRSEL
B2: SULT1A1*2 (Homo sapiens; R213H) (protein)
chain: B1 chain with R213H
B3: UGT 1A1 (Homo sapiens) (protein)
chain: HAGKILLIPVDGSHWLSMLGAIQQLQQRGHEIVVLAPDASLYIRDGAFYTLKTYPVPFQREDVKESFVSLGHNVFENDSFLQRVIKTYKKIKKDSAMLLSGCSHLLHNKELMASLAESSFDVMLTDPFLPCSPIVAQYLSLPTVFFLHALPCSLEFEATQCPNPFSYVPRPLSSHSDHMTFLQRVKNMLIAFSQNFLCDVVYSPYATLASEFLQREVTVQDLLSSASVWLFRSDFVKDYPRPIMPNMVFVGGINCLHQNPLSQEFEAYINASGEHGIVVFSLGSMVSEIPEKKAMAIADALGKIPQTVLWRYTGTRPSNLANNTILVKWLPQNDLLGHPMTRAFITHAGSHGVYESICNGVPMVMMPLFGDQMDNAKRMETKGAGVTLNVLEMTSEDLENALKAVINDKSYKENIMRLSSLHKDRPVEPLDLAVFWVEFVMRHKGAPHLRPAAHDLTWYQYHSLDVIGFLLAVVLTVAFITFKCCAYGYRKCLGKKGRVKKAHKSKTH
B4: UGT 1A10 (Homo sapiens) (protein)
chain: GKLLVVPMDGSHWFTMQSVVEKLILRGHEVVVVMPEVSWQLERSLNCTVKTYSTSYTLEDQNREFMVFAHAQWKAQAQSIFSLLMSSSSGFLDLFFSHCRSLFNDRKLVEYLKESSFDAVFLDPFDTCGLIVAKYFSLPSVVFTRGIFCHHLEEGAQCPAPLSYVPNDLLGFSDAMTFKERVWNHIVHLEDHLFCQYLFRNALEIASEILQTPVTAYDLYSHTSIWLLRTDFVLDYPKPVMPNMIFIGGINCHQGKPLPMEFEAYINASGEHGIVVFSLGSMVSEIPEKKAMAIADALGKIPQTVLWRYTGTRPSNLANNTILVKWLPQNDLLGHPMTRAFITHAGSHGVYESICNGVPMVMMPLFGDQMDNAKRMETKGAGVTLNVLEMTSEDLENALKAVINDKSYKENIMRLSSLHKDRPVEPLDLAVFWVEFVMRHKGAPHLRPAAHDLTWYQYHSLDVIGFLLAVVLTVAFITFKCCAYGYRKCLGKKGRVKKAHKSKTH
B5: UGT 1A8 (Homo sapiens) (protein)
chain: GKLLVVPMDGSHWFTMQSVVEKLILRGHEVVVVMPEVSWQLGKSLNCTVKTYSTSYTLEDLDREFMDFADAQWKAQVRSLFSLFLSSSNGFFNLFFSHCRSLFNDRKLVEYLKESSFDAVFLDPFDACGLIVAKYFSLPSVVFARGIACHYLEEGAQCPAPLSYVPRILLGFSDAMTFKERVRNHIMHLEEHLFCQYFSKNALEIASEILQTPVTAYDLYSHTSIWLLRTDFVLDYPKPVMPNMIFIGGINCHQGKPLPMEFEAYINASGEHGIVVFSLGSMVSEIPEKKAMAIADALGKIPQTVLWRYTGTRPSNLANNTILVKWLPQNDLLGHPMTRAFITHAGSHGVYESICNGVPMVMMPLFGDQMDNAKRMETKGAGVTLNVLEMTSEDLENALKAVINDKSYKENIMRLSSLHKDRPVEPLDLAVFWVEFVMRHKGAPHLRPAAHDLTWYQYHSLDVIGFLLAVVLTVAFITFKCCAYGYRKCLGKKGRVKKAHKSKTH
B6: UGT 1A9 (Homo sapiens) (protein)
chain: GKLLVVPMDGSHWFTMRSVVEKLILRGHEVVVVMPEVSWQLGRSLNCTVKTYSTSYTLEDLDREFKAFAHAQWKAQVRSIYSLLMGSYNDIFDLFFSNCRSLFKDKKLVEYLKESSFDAVFLDPFDNCGLIVAKYFSLPSVVFARGILCHYLEEGAQCPAPLSYVPRILLGFSDAMTFKERVRNHIMHLEEHLLCHRFFKNALEIASEILQTPVTEYDLYSHTSIWLLRTDFVLDYPKPVMPNMIFIGGINCHQGKPLPMEFEAYINASGEHGIVVFSLGSMVSEIPEKKAMAIADALGKIPQTVLWRYTGTRPSNLANNTILVKWLPQNDLLGHPMTRAFITHAGSHGVYESICNGVPMVMMPLFGDQMDNAKRMETKGAGVTLNVLEMTSEDLENALKAVINDKSYKENIMRLSSLHKDRPVEPLDLAVFWVEFVMRHKGAPHLRPAAHDLTWYQYHSLDVIGFLLAVVLTVAFITFKCCAYGYRKCLGKKGRVKKAHKSKTH
B7: UGT 2B7 (Homo sapiens) (protein)
chain: GKVLVWAAEYSHWMNIKTILDELIQRGHEVTVLASSASILFDPNNSSALKIEIYPTSLTKTELENFIMQQIKRWSDLPKDTFWLYFSQVQEIMSIFGDITRKFCKDVVSNKKFMKKVQESRFDVIFADAIFPCSELLAELFNIPFVYSLSFSPGYTFEKHSGGFIFPPSYVPVVMSELTDQMTFMERVKNMIYVLYFDFWFEIFDMKKWDQFYSEVLGRPTTLSETMGKADVWLIRNSWNFQFPYPLLPNVDFVGGLHCKPAKPLPKEMEDFVQSSGENGVVVFSLGSMVSNMTEERANVIASALAQIPQKVLWRFDGNKPDTLGLNTRLYKWIPQNDLLGHPKTRAFITHGGANGIYEAIYHGIPMVGIPLFADQPDNIAHMKARGAAVRVDFNTMSSTDLLNALKRVINDPSYKENVMKLSRIQHDQPVKPLDRAVFWIEFVMRHKGAKHLRVAAHDLTWFQYHSLDVIGFLLVCVATVIFIVTKCCLFCFWKFARKAKKGKND
B8: UGT 1A3 (Homo sapiens) (protein)
chain: GKVLVVPIDGSHWLSMREVLRELHARGHQAVVLTPEVNMHIKEENFFTLTTYAISWTQDEFDRHVLGHTQLYFETEHFLKKFFRSMAMLNNMSLVYHRSCVELLHNEALIRHLNATSFDVVLTDPVNLCAAVLAKYLSIPTVFFLRNIPCDLDFKGTQCPNPSSYIPRLLTTNSDHMTFMQRVKNMLYPLALSYICHAFSAPYASLASELFQREVSVVDILSHASVWLFRGDFVMDYPRPIMPNMVFIGGINCANRKPLSQEFEAYINASGEHGIVVFSLGSMVSEIPEKKAMAIADALGKIPQTVLWRYTGTRPSNLANNTILVKWLPQNDLLGHPMTRAFITHAGSHGVYESICNGVPMVMMPLFGDQMDNAKRMETKGAGVTLNVLEMTSEDLENALKAVINDKSYKENIMRLSSLHKDRPVEPLDLAVFWVEFVMRHKGAPHLRPAAHDLTWYQYHSLDVIGFLLAVVLTVAFITFKCCAYGYRKCLGKKGRVKKAHKSKTH

This is an account of results in article PMC8929358.

Positions count from the first letter of the chain named. Names may count otherwise.

Substrate in the first data set: Cc1c(Cl)c(C)[n+]([O-])c(Cl)c1-c1noc(-c2cc(O)c(O)c([N+](=O)[O-])c2)n1
In words: not read. The class given is in vitro ADME, human. The following applies: other: substrate inhibition fit; pH 7.4; 37.0 °C.
Regarding B1, the Michaelis constant (Km) stood at 18.7 µM.

Regarding B2, the Km is 27.3 µM.

Substrate in a further data set: Cc1c(Cl)c(C)[n+]([O-])c(Cl)c1-c1noc(-c2cc(O)c(O)c([N+](=O)[O-])c2)n1
Kind of data set: cells, lysate or membranes named. The note with it: pH 7.5; 37.0 °C. The class given is in vitro ADME, human.
Take B3: the Km is 18 µM.

In the case of B4, the Km was 64.9 ± 23.8 µM.

Consider B5, for which the Km came to 34.8 ± 9.6 µM.

In the case of B6, the Km worked out at 13.7 µM.

As to B7, the Michaelis-Menten constant (Km) was 20.6 µM.

With B8, the Michaelis-Menten constant (Km) was 213 µM.
